Laboratory results from the nanobody polyreactivity screen of Harvey et al. (2022).

Test: yeast display, Sf9 membrane polyspecificity reagent, FACS + sequencing; frameworks hold sequencing errors
How it was run: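 In a synthetic yeast display library (Saccharomyces cerevisiae BJ5465), nanobody expression was induced with galactose for 36–48 hours. FACS gates were set low and high (top ~1%) using anti-HA fluorescence for expression and streptavidin fluorescence for binding of the Sf9 membrane reagent. Each polyreactivity label is drawn from the gate of origin.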

Sequence	polyreactivity (PSR sort gate)
QVQLVESGGGLVQAGGSLRLSCAASGFTFYGYAMGWYRQAPGKERELVAAISSSGGRTYYADSVKGRFTISRDNAKNTVYLQMNSLKPEDTAVYYCAADYTSRDYYYWGQGTQVTVSS	high polyreactivity
QVQLVESGGGLVQAGGSLRLSCAASGITFTRNVMGWYRQAPGKERELVAAISGSGGSTYYADSVKGRFTISRDNAKNTFYLQMNSLKPEDTAVYYCAARSRGGRRYDYWGQGTQVTVSS	high polyreactivity
QVQLVESGGGLVQAGGSLRLSCAASGFTFGYYAMGWYRQAPGKEREVVAAIRGGGRTNYADSVKGRFTISRDNAKITVYLQMNSLKPEDTAVYYCNADRLRTLRGDDWGQGSQVTVSS	low polyreactivity
QVQLVESGGGLVQAGGSLRLSCAASGYTFTHYAMGWYRQAPGKERELVAGITWSGGSTYYADSVKGRLTISRDNAKNTVYLQMNSLKPEDTSVYYCAAKYYWYYSYSGIPLFDYWGQGTQVTVSS	low polyreactivity
QVQLVESGGGLVQAGGSLRLSCAASGFTFRYYAMGGYRQAPGKERELVAAITASGGSTNYADSVKGRFTISRDNAKNTVYLQMNSLKPEDTAVYYCAADVRFSYYNRYRGYSAYDNWGQGTQVTVSS	high polyreactivity
QVQLVESGGGLVQAGGSLSLSCAATGFTFRPYAMAWYRQATGKERELVAAITSGDSTNYADSVKGRFTISRDNAKKSVYLQMISVKAEDTAVFYCAADSTGRPSVSYDYWGQGTQVTVSS	low polyreactivity
QVQLVESGGGLVQAGGSLRLSCAASGNIFDGYAMGWYRQAPGKERELVAAITSSAGSTYYADSVKGRFTISRDNAKNTVYLQMNSLKPEDTAVYYCNKVTKYRPIEGSWGQGTQVTVSS	high polyreactivity
QVQLVESGGGLVQAGGSLRLSCAASGGTFNGNTMGWYRQAPGKERELVAVIDWSGGSTYYADSVKGRFTISRDNAKNTVYLQMNSLKPEDTAVYYCNADSDAQFREPKGLYYWGQGTQVTVSS	low polyreactivity
QVQLVESGGGLVQAGGSLRLSCAASGRTFIYNVMGWYRQAPGKERELVAAISQRGGSTYYADSVKGRFTISRDNAKNTVYLQMNSLKPEDTAVYYCAAESYYKKWSDYWGQGTQVTVSS	high polyreactivity
QVQLVESGGGLVQAGGSLRLSCAASGSIFPRNAMGWYRQAPGKERELVAAITTTGGITHYADSVKGRFTISRDNAKNTVYLQMNSLKPEDTAVYYCNASYEYNAGRVETEYDYWGQGTQVTVSS	low polyreactivity
QVQHVESGGGLVQAGGSLRLSCAASGSILPFNAMGWYRQAPGKVRELVAAIDGSGGDTYYADSVKGRFTISRDNAKNTVYLQMNSLKAEDTAVYYCAAEYYYTSQLAKYHYGYEYWGQGTQETVSS	high polyreactivity
QVQIVESGGGLVQAGGSLRLSCAASGSTFGYYAMGWYRQAPGKERELVAAISWRGGSTYYADSVKGRFTISRDNAKNTVYLQMHILKPEYTAVYYCAAAIFITGYGSYGYWGLGTQVTVSS	low polyreactivity
QVQLEESGGGLVQAGGSLRLSCAASGRTFSANTMGLYRKATGKERELVAAISKSGGSTYYADSVKGRLTISRDTAKYTVYLQMNSLNPEDTAVYYCAARTSGYWYSYGSWGQGTQVTVSS	high polyreactivity
QVQLVESGGGLVQAGGSLRLSCAASVRIFLWYAMGWYRQAPGKERELVAAITKSAGTTYYADSVKGRFTISRDNAKNTVYLQMNSLKPEDTAVYYCGAYYWLYAHWRFGNYWGQGTQVTVSS	low polyreactivity
QVQLVESGGGLVQAGGSLRLSCAASGITFAWNAMGWYRPAPGKEREFVAAINWSGGSTYYADSVKGRFTISRDNAKNTVYLQMNSLKPEDTAVYYCAAYKRSYYPRTLYDYWGQGTQVTVSS	high polyreactivity
QVQLVEAGGGLVQAGGSLRLSCAACGSIFISYAMGWYRQAPGKERELVAAISSGGSTNYADSVKGRFTISRDNAKNTVYLQMNSLTPEDTAVYYCAADGWLWSFTGDGWWFDYWGQGTQVTVSS	low polyreactivity
QVQLVESGGGLGQAGGSLRLICAASGSTFRHYAMGWYRPAPRKERELVAVISWGGTSTYYADSVKGRFTISRDNAKNTVYLQMNSLKPEDTAVYYCNKAYFPIFKGYEMYYWGQGTQVTVSS	low polyreactivity
QVQLVESGAGLLQAGGSLRLSCAASGITLRRNTMGWYRQAPGKERELVAAITRSGGSTYYADSVKGRVTISRDNAKNTVYLQINSLKPEVTAVYYCAEGPSYGGPSHVYWRQGTQVTVSS	high polyreactivity
QVQLVESVGGLVQAGGSLRLSCAASGSIFGYYAMGWYRQAPGKDRELVAGINWSGGSTYADSVKGRFTISRDNAKNTVYIQMNSLKPEDTAVYYCNRRYRKDSSAKYDYWGQGTQVTVSS	high polyreactivity
QVQLVESGGGLVQAGGSLRLSCAASGRTFRWYAMGWYRQAPGKEMELVAALTFRGGRTYYADSVKGRFTISRDNAKNTVYLQMNSLKPEDTAVYYCNAVTYSSPYRFDYWGQGTQVTVSS	low polyreactivity
QVQLVESGGGLVQAGGSLRLICAASGIIFTYNAMGWYRQAPGKERELVAAINGGSSTNYADSVKGRFTISRDNAKNTVYLQMNSLKPEDTAVYDCAADVIPDGVKKPRMYYWGQGTQVTVSS	low polyreactivity

Sequence	polyreactivity (PSR sort gate)
QDQLVESGGGLVQAGGSLRLSCAASGFTLATYAMGWYSPAPGKEREWVAAITRSGGSTDDADSVKGRFTISRDIAKNTVYVQMNSLKPEDTAVYYCNAREVRYEYNYWGHGTQVTVSS	low polyreactivity
QDQLVESGGGLVQAGGSLRLSCAASGNIYPYAMGWYRQAPGKEREFVAAIRYSGGITYYADSVKGRFTISRDNAKNTVYLQMNSLKPEDTAVYYCAAYGWGNRWYSRFDYWGQGTQVTVSS	high polyreactivity
QVQVVKSGGGLVQAGGSLSLSCAASGRTFGVYAMGWYRQAPGNESELVAGIRWRGGSTYYADSVKGRFTISRDNSKNTVYLQMKSLKPEETAVYYCAADVDLVKDDYWGQGTQVTVSS	low polyreactivity
QVQLVESGGGLVQAGGSLRLSCAASGGTFSYNAMGWYRQAPGKERELVAAISSRGGSTYYSDSVKGRFTISRDNAKNTDYLQMNSLKPEDTAVYYCNAVRGVWYGSWGQGTQVTVSS	high polyreactivity
QVQLVESGGGLVQAGGSLRLSCAASVRTQPRYAMGRYRQAPGKERDLVAAISRSGGSTHYADSVKGRFTISRDNAKNTVYFQMNSLKPEDTAVYYCATQRYPYRFYAFQYYYWGQGTQVTVSS	high polyreactivity
QVQLVESGGGLVQAGGSLRLSCAASGRIFSSKAMGWYRQAPGKERELVAAISWIVGRTYYADSVKGRFTISRDNAKNTVYLQMNSLIPEATAVYYCAKGSYYVRNRGWGYDYWGQGTQVTVSS	high polyreactivity
QVQLVESGGGLVQAGGSLRLSCAASGRIFSHKAMGWYRQAPGKERELVAGISSGGGTTYADSVKGRFTISRDNAKNTVYLQMNSLKPEDTAVYYCNKQDQPVGRSGYPYGYDYWGQGTQVTVSS	low polyreactivity
QVQLVESGGGLVHAGGSLRLSCAASGSIFTIYAMGWYRQAPGKERELVAAISDRGTRTYYADSVKGRFTISRDNAKNTVYLQMNSLKPEDTAVYYCATDALYTYGYDYWGQGTQVTVSS	low polyreactivity
QVQLVESGGGLVQAGGSLRLSCAASGSTYTNAMGWYRPAPGKERELVAAITWSGGTTYYADSVKGRLTISRDNAKNTVYLQMNSLKPEDTAVYYCAAEYRWYSRYFNYWGQGTQVTVSS	high polyreactivity
QVQLVESGGGLVQAGGSLRLSCAASGRTFYGNAMGWYRQAPGKERELVAAISWSGGSTYYADSVKGRFTISRDNAKNTVYLQMNSLKPEDTAVYYCNADYFAWDLMYYWGHGTQVTVSS	low polyreactivity
QVQLVESGGGLVQAGGSLRLSCAASGRTFRKYAMGWYRQATGKERELVAAISWSGGSTYYANSVKGRFTISGDNAKNTVYLQINSLNPEDTAVYFCAVDCHPEEYDYWGQGTQVTVSS	low polyreactivity
QGQLVESGGGLVQAGGSLRLSSAASGSTFARYAMGWYRQAPGKERELVAVIRSGGSTNYADSVKGRFTISRDNAKNTVYLQMNSLKPEDTAGAADLWTLHRWATYGYWGQGTQVTVSS	low polyreactivity
QVQLVETGGGLVHAGGSLRLSCAASGSILRPNAMGWYRQAPGKERELVAAITTSGGSTYYADSVKGRFTISRDNAKNTVYLQMNSLKPEDTAVYYCAAEYVYYYYLYLYYYWGQGTQVTVSS	high polyreactivity
QVQLVESGGGLVQAGGSLRLRCGASGFIFEHYAMGWYRPAPAKERDFVAAISGSGGNKYYADSVKGRFTISRDNAKNTVYLQMNSLKPEDTAVYSCNKVDGTTLDDHYMDYWGQGTQVTVSS	low polyreactivity
QVQLVESGGGLVQAGGSLRLSCAASGFILIQYAMGWYRQAPGKERELVAAITWSDTSTNYADSVKGRFTISRDNAKNTVYLQMNSLKPEDTAVYYCNADLYGAQDRRLDYYAEGYWGQGTQVTVSS	low polyreactivity
QVQLVESGGGLVQAGGSLRLSCAASGSIFVRNAMGWYRQAPGKERELVAAITATGGRTYYADSVKGRFTISRDNAKNTVYLQMNSLKPEDTAVYYCAAYYPRSGYDYWGQGTQVTVSS	high polyreactivity
QVQLVESGGGLVQAGGSLRLSCAASGIIFRYYAMGWYRQAPGKERELVAAISVSGGSTYDADSVKGRFTISRDNAKNTVYLQMNSLKPEDTAVYYCAARTRDFGYWGQGTQVTVSS	high polyreactivity
QVQLQESGGGLVQADGSLRLSCAASGSIFGYYYMGWYRQAPGKDRELVATINICGITNYADSVKGRFTISRDNAKNTVYLQMNSLKPDDNAVYYCAADEYAQRDLGYWGQGTQVTVSS	low polyreactivity
QVQLVESGGGLVQAGGSLRLSCAASGRIFRSYAMGWYREAPGKERELVAAISSGGSTNYADSVKGRFTISRDNAKNTVYLQLNSLKPEDTAVYYCAAELWAYTWYWHSDYWGQGTQVTVSS	low polyreactivity
QVQLVESGGGLVQAGGSLRLSCAASARIFPWNAMGWYRQAPGKERELVAAITSGGGTTYYADSVKGRFTISRDNAKNTVYLQMNSLKPEDTAVYYCATPWEGSSTADYRISVYYWGQGTQVTVSS	low polyreactivity
